Experimental data published in patent US20160208233A1 (Harvard, published 2016).
Positions count from the first letter of the chain named. In names and notes the source's numbering stands.

What was measured:
Abz-LPETGK(Dnp)-CONH2 = molecular target: T1, Abz-LPETGK(Dnp)-CONH2
T1 chain: LPETGK

Abz-LAETGK(Dnp)-CONH2 = molecular target: T2, Abz-LAETGK(Dnp)-CONH2
T2 chain: LAETGK

Abz-LPESGK(Dnp)-CONH2 = molecular target: T3, Abz-LPESGK(Dnp)-CONH2
T3 chain: LPESGK

B1: eSrtA(2A-4) (protein)
chain: QAKPQIPKDKSKVAGYIEIPDADIKEPVYPGPATREQLNRGVSFHEENESLDDQNISIAGHTFIDRPNYQFTNLKAAKKGSMVYFKVGNETRKYKMTSIRNVRPTAVEILDEQKGKDKQLTLVTCDDYNEETGVWETRKIFVATEVK
Abz-LPETGK(Dnp)-CONH2
  Avg KM: 5.18 mM
  Avg kcat/KM: 9.69
  Km, LxExG: 11.7 mM
  kcat/Km (Hz/M): 8.01 Hz/M
Abz-LAETGK(Dnp)-CONH2
  Avg KM: 3.72 mM
  Avg kcat/KM: 534
  Km, LxExG: 3.25 mM
  Specificity (relative catalytic efficiency, fold), LAETG over LPETG: 55.1 fold
  increase in kcat/Km, LAETG substrate against LPETG substrate: from ˜40-fold (2Ar4) to ˜125-fold (2Ar5) increase in kcat/Km
  kcat/Km (Hz/M): 585 Hz/M
  specificity (relative cat. Efficiency, fold), LAETG over LPETG: 73 fold

B2: eSrtA(2A-3) (protein)
chain: B1 chain with K25R, H45A, F63S, D65G, K75R, K86E, K118R, V123F
Abz-LPETGK(Dnp)-CONH2
  Avg KM: 2.1 mM
  Avg kcat/KM: 1270
  Specificity (relative catalytic efficiency, fold), LPETG over LAETG: 1.44 fold
Abz-LAETGK(Dnp)-CONH2
  Avg KM: 1.62 mM
  Avg kcat/KM: 881

B3: eSrtA(4S-3) (protein)
chain: B1 chain with N39S, H45T, A59T, F63S, D65G, K75R, R103K, I109V, K114E, K118E
Abz-LPETGK(Dnp)-CONH2
  Avg KM: 3.39 mM
  Avg kcat/KM: 3.12
Abz-LPESGK(Dnp)-CONH2
  Avg KM: 3.33 mM
  Avg kcat/KM: 763
  Specificity, LPESG over LPETG: 245 fold

B4: eSrtA(4S-3.5) (protein)
chain: B1 chain with H45T, A59T, R103K, I109V
Abz-LPETGK(Dnp)-CONH2
  Avg KM: 39.3 mM
  Avg kcat/KM: 133
Abz-LPESGK(Dnp)-CONH2
  Avg KM: 38.8 mM
  Avg kcat/KM: 193
  Km, LxExG: 7.31 mM
  Specificity, LPESG over LPETG: 1.45 fold
  kcat/Km (Hz/M): 154 Hz/M

B5: eSrtA(4S-4) (protein)
chain: B1 chain with H45V, A59T, F63S, R103K, I109V
Abz-LPETGK(Dnp)-CONH2
  Avg KM: 0.491 mM
  Avg kcat/KM: 219
  Km, LxExG: 0.339 mM
  kcat/Km (Hz/M): 283 Hz/M
Abz-LPESGK(Dnp)-CONH2
  Avg KM: 1.56 mM
  Avg kcat/KM: 487
  Km, LxExG: 1.41 mM
  Specificity, LPESG over LPETG: 2.22 fold
  kcat/Km (Hz/M): 517 Hz/M
  specificity (relative cat. Efficiency, fold), LPESG over LPETG: 1.82 fold

B6: eSrtA(2A-9) H104A (protein)
chain: QAKPQIPKDKSKVAGYIEIPDADIKEPVYPGPATREQLNRGVCFADENESLDDQNISIAGHTFIDRPNYQFTNLKAAKPGSMVYFKVGNETRIYKMTSIRKVHPNAVEVLDEQEGKDKQLTLVTCDDYNEETGVWESRKIFVATEVK
Abz-LPETGK(Dnp)-CONH2
  preference for LPETG over LAETG (kcat/Km): resulting in a 60-fold preference for LPETG (SEQ ID NO: 4) over LAETG (SEQ ID NO: 5)

B7: eSrtA(2A-9) V182I (protein)
chain: B6 chain with A45H, V123I
Abz-LAETGK(Dnp)-CONH2
  preference for LAETG over LPETG (kcat/Km): lowers the activity level for LAETG (SEQ ID NO: 5), but maintains an 85-fold preference for LAETG (SEQ ID NO: 5) over LPETG (SEQ ID NO: 4)

B8: eSrtA(4S-9) V104A (protein)
chain: B1 chain with N39D, S43C, H45A, A59T, F63A, K75R, F85L, R103K, I109V, E130F
Abz-LPESGK(Dnp)-CONH2
  lowering of specificity for LPESG over LPETG against eSrtA(4S-9): lowering specificity for LPESG (SEQ ID NO: 3) over LPETG (SEQ ID NO: 4) by 14-fold for the V104A mutant

B9: eSrtA(4S-9) T118A (protein)
chain: B1 chain with N39D, S43C, H45V, F63A, K75R, F85L, R103K, I109V, E130F
Abz-LPESGK(Dnp)-CONH2
  lowering of specificity for LPESG over LPETG against eSrtA(4S-9): by 75-fold for the T118A mutant

B10: eSrtA(4S-9) V182I (protein)
chain: QAKPQIPKDKSKVAGYIEIPDADIKEPVYPGPATREQLDRGVCFVEENESLDDQNISITGHTAIDRPNYQFTNLRAAKKGSMVYLKVGNETRKYKMTSIRNVKPTAVEVLDEQKGKDKQLTLITCDDYNFETGVWETRKIFVATEVK
Abz-LPESGK(Dnp)-CONH2
  activity and selectivity on LPESG and LPETG (kcat/Km): Reversion of V182 in eSrtA(4S-9) preserved selectivity but decreased overall activity
